Laboratory results reported in the supplement of paper PMC9112550, “Optimization of the antimicrobial peptide Bac7 by deep mutational scanning” (BMC Biology, 2022).

tested on: Escherichia coli TOP10; assay: shrunken log2 fold change of peptide-encoding DNA abundance (4.5 h post-induction vs induction); higher = less antimicrobial activity (less host growth inhibition); settings: time post-induction: 4.5 h; library: site-saturation at positions 5, 18, 19, 20
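Further: peptides expressed intracellularly from a pBAD plasmid library in pooled LB shake-flask culture, induced with 0.3% L-arabinose, DNA abundance read by NGS, three biological replicates, DESeq2 with apeglm shrinkage.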

Sequence | shrunken log2 fold change
RRIRWRPPRLPRPRPRPDGGPRP | -0.0355
RRIRWRPPRLPRPRPRPDGVPRP | -0.1
RRIRWRPPRLPRPRPRPDHNPRP | -0.302
RRIRWRPPRLPRPRPRPDITPRP | 0.179
RRIRWRPPRLPRPRPRPDKDPRP | -0.365
RRIRWRPPRLPRPRPRPDKSPRP | -0.135
RRIRWRPPRLPRPRPRPDLKPRP | 0.12
RRIRWRPPRLPRPRPRPDLNPRP | 0.392
RRIRWRPPRLPRPRPRPDMRPRP | 0.499
RRIRWRPPRLPRPRPRPDNMPRP | -0.0443
RRIRWRPPRLPRPRPRPDPWPRP | 0.0147
RRIRWRPPRLPRPRPRPDQNPRP | -0.0342
RRIRWRPPRLPRPRPRPDRAPRP | 0.487
RRIRWRPPRLPRPRPRPDREPRP | -0.0009
RRIRWRPPRLPRPRPRPDRHPRP | -0.157
RRIRWRPPRLPRPRPRPDRPPRP | -0.0134
RRIRWRPPRLPRPRPRPDTSPRP | 0.0558
RRIRWRPPRLPRPRPRPDTYPRP | -0.161
RRIRWRPPRLPRPRPRPDVLPRP | -0.0113
RRIRWRPPRLPRPRPRPDYFPRP | -0.0991
RRIRWRPPRLPRPRPRPEAPPRP | 1.01
RRIRWRPPRLPRPRPRPEASPRP | 0.551
RRIRWRPPRLPRPRPRPEATPRP | 1.44
RRIRWRPPRLPRPRPRPECQPRP | -0.0508
RRIRWRPPRLPRPRPRPEDWPRP | 0.947

Sequence | shrunken log2 fold change
RRIRWRPPRLPRPRPRPEEAPRP | 0.113
RRIRWRPPRLPRPRPRPEEPPRP | 0.805
RRIRWRPPRLPRPRPRPEHLPRP | -0.138
RRIRWRPPRLPRPRPRPEKDPRP | -0.0712
RRIRWRPPRLPRPRPRPEKTPRP | 0.191
RRIRWRPPRLPRPRPRPEKYPRP | -0.357
RRIRWRPPRLPRPRPRPELDPRP | 1.82
RRIRWRPPRLPRPRPRPELFPRP | -0.0123
RRIRWRPPRLPRPRPRPELLPRP | 0.485
RRIRWRPPRLPRPRPRPELVPRP | 0.605
RRIRWRPPRLPRPRPRPEMTPRP | -0.0833
RRIRWRPPRLPRPRPRPEPGPRP | 0.43
RRIRWRPPRLPRPRPRPEQDPRP | -0.0232
RRIRWRPPRLPRPRPRPESQPRP | 0.185
RRIRWRPPRLPRPRPRPETDPRP | 0.773
RRIRWRPPRLPRPRPRPETEPRP | 0.411
RRIRWRPPRLPRPRPRPETQPRP | 0.0616
RRIRWRPPRLPRPRPRPEVPPRP | 0.0568
RRIRWRPPRLPRPRPRPEYHPRP | 0.0167
RRIRWRPPRLPRPRPRPFCWPRP | 0.403
RRIRWRPPRLPRPRPRPFDPPRP | 0.0827
RRIRWRPPRLPRPRPRPFDSPRP | -0.124
RRIRWRPPRLPRPRPRPFDWPRP | 0.344
RRIRWRPPRLPRPRPRPFDYPRP | -0.554
RRIRWRPPRLPRPRPRPFEPPRP | 1.2

Sequence | shrunken log2 fold change
RRIRWRPPRLPRPRPRPFFAPRP | 0.367
RRIRWRPPRLPRPRPRPFFMPRP | -0.108
RRIRWRPPRLPRPRPRPFHCPRP | -0.026
RRIRWRPPRLPRPRPRPFICPRP | -0.309
RRIRWRPPRLPRPRPRPFIEPRP | -0.441
RRIRWRPPRLPRPRPRPFKHPRP | -0.405
RRIRWRPPRLPRPRPRPFKIPRP | -0.358
RRIRWRPPRLPRPRPRPFLIPRP | -0.488
RRIRWRPPRLPRPRPRPFNQPRP | -0.494
RRIRWRPPRLPRPRPRPFPHPRP | 0.29
RRIRWRPPRLPRPRPRPFRSPRP | -0.128
RRIRWRPPRLPRPRPRPFTMPRP | -0.36
RRIRWRPPRLPRPRPRPFVLPRP | 0.231
RRIRWRPPRLPRPRPRPFVRPRP | -0.127
RRIRWRPPRLPRPRPRPFVSPRP | -0.135
RRIRWRPPRLPRPRPRPFYLPRP | -0.336
RRIRWRPPRLPRPRPRPGAWPRP | 0.373
RRIRWRPPRLPRPRPRPGAYPRP | 0.109
RRIRWRPPRLPRPRPRPGENPRP | -0.0316
RRIRWRPPRLPRPRPRPGGDPRP | 0.556
RRIRWRPPRLPRPRPRPGGGPRP | 0.953
RRIRWRPPRLPRPRPRPGIGPRP | 0.433
RRIRWRPPRLPRPRPRPGIHPRP | 0.11
RRIRWRPPRLPRPRPRPGIPPRP | 0.11
RRIRWRPPRLPRPRPRPGIRPRP | 0.29

Sequence | shrunken log2 fold change
RRIRWRPPRLPRPRPRPGLSPRP | -0.0318
RRIRWRPPRLPRPRPRPGMHPRP | 0.343
RRIRWRPPRLPRPRPRPGMRPRP | 0.976
RRIRWRPPRLPRPRPRPGMYPRP | 0.0165
RRIRWRPPRLPRPRPRPGNPPRP | -0.139
RRIRWRPPRLPRPRPRPGNWPRP | 0.0533
RRIRWRPPRLPRPRPRPGRHPRP | 0.458
RRIRWRPPRLPRPRPRPGSCPRP | 0.389
RRIRWRPPRLPRPRPRPGSGPRP | 0.497
RRIRWRPPRLPRPRPRPGSMPRP | -0.0806
RRIRWRPPRLPRPRPRPGTKPRP | 0.139
RRIRWRPPRLPRPRPRPGVLPRP | 0.0321
RRIRWRPPRLPRPRPRPGVMPRP | 0.477
RRIRWRPPRLPRPRPRPGWTPRP | 0.253
RRIRWRPPRLPRPRPRPGYCPRP | -0.407
RRIRWRPPRLPRPRPRPGYQPRP | -0.00973
RRIRWRPPRLPRPRPRPHASPRP | 0.134
RRIRWRPPRLPRPRPRPHAVPRP | 0.172
RRIRWRPPRLPRPRPRPHCFPRP | -0.0202
RRIRWRPPRLPRPRPRPHCGPRP | -0.0645
RRIRWRPPRLPRPRPRPHDKPRP | 0.0422
RRIRWRPPRLPRPRPRPHDQPRP | 0.36
RRIRWRPPRLPRPRPRPHFSPRP | -0.205
RRIRWRPPRLPRPRPRPHHNPRP | -0.478
RRIRWRPPRLPRPRPRPHHQPRP | -0.316

Sequence | shrunken log2 fold change
RRIRWRPPRLPRPRPRPHHRPRP | -0.214
RRIRWRPPRLPRPRPRPHIMPRP | -0.457
RRIRWRPPRLPRPRPRPHIWPRP | -0.131
RRIRWRPPRLPRPRPRPHKFPRP | -0.307
RRIRWRPPRLPRPRPRPHKLPRP | -0.135
RRIRWRPPRLPRPRPRPHKSPRP | 0.0767
RRIRWRPPRLPRPRPRPHMGPRP | 0.0771
RRIRWRPPRLPRPRPRPHMSPRP | 0.033
RRIRWRPPRLPRPRPRPHNGPRP | -0.349
RRIRWRPPRLPRPRPRPHPQPRP | 0.309
RRIRWRPPRLPRPRPRPHPYPRP | -0.195
RRIRWRPPRLPRPRPRPHQRPRP | -0.0218
RRIRWRPPRLPRPRPRPHRHPRP | -0.131
RRIRWRPPRLPRPRPRPHRVPRP | -0.0781
RRIRWRPPRLPRPRPRPHTWPRP | -0.134
RRIRWRPPRLPRPRPRPHVPPRP | -0.161
RRIRWRPPRLPRPRPRPHWKPRP | -0.018
RRIRWRPPRLPRPRPRPHYDPRP | -0.0735
RRIRWRPPRLPRPRPRPHYIPRP | -0.468
RRIRWRPPRLPRPRPRPHYLPRP | -0.106
RRIRWRPPRLPRPRPRPHYVPRP | -0.113
RRIRWRPPRLPRPRPRPHYWPRP | -0.0704
RRIRWRPPRLPRPRPRPIACPRP | 0.0997
RRIRWRPPRLPRPRPRPIADPRP | 0.0247
RRIRWRPPRLPRPRPRPIAEPRP | 0.00894

Sequence | shrunken log2 fold change
RRIRWRPPRLPRPRPRPIAGPRP | 0.0596
RRIRWRPPRLPRPRPRPIAWPRP | 0.713
RRIRWRPPRLPRPRPRPIDTPRP | 0.00736
RRIRWRPPRLPRPRPRPIEMPRP | 0.467
RRIRWRPPRLPRPRPRPIEVPRP | 0.0279
RRIRWRPPRLPRPRPRPIFDPRP | 0.273
RRIRWRPPRLPRPRPRPIFSPRP | 0.0085
RRIRWRPPRLPRPRPRPIFWPRP | -0.00424
RRIRWRPPRLPRPRPRPIFYPRP | -0.0652
RRIRWRPPRLPRPRPRPIHGPRP | 0.0966
RRIRWRPPRLPRPRPRPIHRPRP | -0.0434
RRIRWRPPRLPRPRPRPIHSPRP | -0.0401
RRIRWRPPRLPRPRPRPIIWPRP | -0.269
RRIRWRPPRLPRPRPRPIKHPRP | -0.2
RRIRWRPPRLPRPRPRPILNPRP | -0.362
RRIRWRPPRLPRPRPRPINFPRP | -0.143
RRIRWRPPRLPRPRPRPIPEPRP | -0.0356
RRIRWRPPRLPRPRPRPIPPPRP | 0.101
RRIRWRPPRLPRPRPRPIPTPRP | -0.0487
RRIRWRPPRLPRPRPRPIRYPRP | -0.242
RRIRWRPPRLPRPRPRPITCPRP | -0.0627
RRIRWRPPRLPRPRPRPIVKPRP | -0.174
RRIRWRPPRLPRPRPRPIWFPRP | 1.96
RRIRWRPPRLPRPRPRPIYPPRP | -0.0275
RRIRWRPPRLPRPRPRPIYTPRP | -0.412
